Measurements reported in the supplement of paper PMC10567573.

B1: MMP1 (parent)
chain: MFFKDRFYMRTNPFYPEVELNFIS
B2: IFRG15 (parent)
chain: INRADYCPECYPDNPANRSLVLPW

Variants of: B1
Test: protein stability index of a GFP-peptide fusion (GPS, HEK-293T) (PSI 1-6); higher = more stable
Conditions: c terminus: a fixed tail appended
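Further: lentivirally expressed fusions sorted by FACS into six bins by GFP to DsRed ratio, PSI derived from sequencing read proportions per bin multiplied by bin number.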

Protein stability index: each site, then its substitutions
E19: Y 3.1 | L 2.64 | G 3.69 | I 3.25 | K 4.43 | P 3.53 | V 2.27 | N 3.6
F22: E 2.38 | S 1.67 | H 2.16 | Y 2.94 | V 2.92 | M 2.32 | R 2.69 | A 2.48 | K 1.83
K4: N 2.26 | Y 3.55 | W 2.11 | P 2.5 | Q 4.05 | R 2.56 | G 1.72
N21: A 2.56 | I 3.34 | G 4.41
F7: Y 1.96 | E 3.35 | Q 2.06 | C 2.32 | H 2.13 | W 3.2 | L 3.36 | N 1.31
M9: Y 3.12 | G 3.71 | C 3.4 | D 1.75 | K 2.59 | P 1.93 | Q 2.65 | S 3.67 | A 1.27
E17: A 2.9 | V 2.99 | T 1.84 | H 3.02 | K 2.21 | C 4.42 | M 2.78
F2: V 2.75 | M 2.02 | H 2.93 | C 3.01 | K 4.48 | N 1.93 | S 2.72
I23: Y 1.75 | W 3.27 | E 2.33 | F 2.41 | S 2.63 | A 2.47 | T 1.56 | V 3.61 | K 2.16 | H 1.76 | D 2.65
P13: D 3.62 | A 2.38 | S 1.94 | C 2.68 | K 2.58 | N 2.29 | H 2.46 | W 3.9
R10: W 2.82 | H 2.42 | M 2.88 | D 2.14 | Q 2.17 | L 2.79 | K 2.74 | G 2.73 | Y 2.63 | P 2.77
M1: S 2.84 | D 2.24 | N 1.76
S24: G 2.88 | C 2.33 | F 3.13 | K 2.83 | Y 3.13 | H 2.68 | D 2.77
L20: R 2.25 | D 2.28 | I 3.27 | N 2.06 | T 1.85
D5: H 2.78 | C 3.75 | Q 3.19 | E 2.63
Y8: F 2.64 | V 3.2 | R 2.98 | P 2.98 | T 2.23 | Q 2.87 | N 2.17
F14: L 2.62 | M 1.73 | A 3.69 | D 3.86 | Q 2.58 | G 2.92
Y15: I 3.09 | F 2.63 | T 2.43 | S 2.69
R6: L 2.39 | E 2.85 | T 3.77 | I 3.27 | Y 3.35 | H 3.05 | G 3.07 | V 3.16 | W 2.14
T11: M 3.47 | W 3.68 | C 3.79
V18: S 3.28 | P 3.06 | E 3.27 | I 2.84
N12: Q 2.67 | F 3.09 | H 2.87 | T 2.56
P16: V 3.21 | E 3.49 | N 3.95 | D 2.18 | W 2.44 | S 2.96 | K 2.25 | I 3.59 | T 3.07
F3: Y 2.97 | P 1.48 | W 3.61 | K 1.83 | T 2.11 | Q 3.42

Variants of: B2
Test: as above
Conditions: c terminus: a fixed tail appended

Protein stability index, by site and new letter:
S19: G 1.82 | I 1.72 | A 2.16 | L 2.16 | R 1.59 | H 2.07 | Q 2 | E 2.22 | W 1.99 | N 1.8 | Y 1.88 | C 1.81 | M 1.65 | P 2.4 | D 2.3 | F 1.27 | V 1.41 | T 1.77 | K 2.14
A16: R 1.67 | V 1.85 | I 1.6 | Y 2.67 | L 1.86 | F 2.02 | G 2.04 | N 2.4 | H 1.71 | P 2.15 | E 2.42 | S 2.42 | D 2.37 | C 1.69 | M 1.85 | K 1.94 | W 1.85 | T 2.06 | Q 2.23
V21: R 1.83 | T 2.43 | A 2.54 | G 2.69 | P 2.92 | M 2.29 | D 2.43 | W 1.29 | F 1.54 | H 1.84 | E 2.29 | Q 2.12 | L 2.53 | C 1.82 | I 1.97 | K 1.98 | Y 1.99 | S 1.97 | N 2.3
P15: V 1.51 | N 1.97 | W 2.19 | T 1.9 | Y 1.84 | R 2.07 | Q 2.1 | S 2.94 | M 2.19
P23: E 1.03 | L 1.57 | I 2.89 | Y 2.09 | D 2.92 | W 2.4 | M 2.5 | T 1.59 | H 1.65 | S 2.83 | K 1.71 | Q 1.87 | R 1.58 | C 1.67 | N 1.65
R18: Y 1.44 | Q 1.99 | W 1.69 | M 2.06 | P 2.38 | T 1.35 | N 2.22 | A 2.17 | L 1.83 | E 2.13 | V 1.9 | H 2.17 | S 2.27 | K 2.83 | F 2.32 | C 1.81 | I 1.82 | G 1.99 | D 2.88
N17: S 2.21 | T 2.53 | L 1.68 | R 1.51 | K 1.8 | Y 1.74 | C 2.03 | G 2.53 | W 1.6 | H 2.04 | D 2.1 | E 2.14 | I 2.25 | V 1.79 | A 2.3 | F 1.54 | Q 1.79 | M 1.91 | P 1.89
L20: Y 1.86 | S 2.28 | N 2.78 | E 2.9 | P 2.31 | A 3.02 | T 2.57 | I 2.27 | H 2.4 | C 2.06 | D 2.73 | M 2.67 | V 2.44 | G 2.48 | F 1.79 | K 2.27 | W 1.8 | R 2.13 | Q 2.02
W24: S 2.9 | Q 2.24 | A 2.19 | I 1.9 | L 1.8 | H 2.37 | C 2.31 | D 3.89 | F 2.3 | T 2.3 | K 2.28 | V 2.53 | R 1.77 | P 2.62 | Y 2.12 | E 2.99 | N 2.46 | G 2.69 | M 2.23
L22: F 2.05 | V 3 | H 1.49 | W 1.65 | C 2.12 | I 1.72 | R 2.36 | E 2.44 | S 1.93 | A 2.69 | M 2.37 | G 2.37 | P 2.93 | K 2.04 | N 2.65 | Q 2.35 | T 2.31 | Y 2.17 | D 2.15
